System: MS2 coat protein
Test: apparent KD of MS2 coat protein; designed switch direction (-1 OFF switch, 1 ON switch): -1; higher = weaker reporter binding
Outline: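 Stalled E. coli RNA polymerase transcribed designed RNA switches on Illumina chips, which were then titrated with SNAP-549-labelled MS2 coat protein, doubling from 0.7 or 1.5 nM to 3 µM. Steps lasted from 0.8–1.5 h at the lowest concentration to 10–20 min at the highest. The apparent KD is each design's median over clusters of curve-fitted normalised fluorescence.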

[1] = Eterna round: R95, input ligand: FMN 200 uM
[2] = Eterna round: R95, input ligand: microRNA oligo, concentration not stated
[3] = Eterna round: R95, input ligand: none
[4] = input ligand: microRNA oligo, concentration not stated

Row | Sequence | apparent KD of MS2 coat protein (input ligand: FMN 200 uM) [nM] | apparent KD of MS2 coat protein (input ligand: none) [nM] | apparent KD of MS2 coat protein [1] [nM] | apparent KD of MS2 coat protein [2] [nM] | apparent KD of MS2 coat protein [3] [nM] | apparent KD of MS2 coat protein [4] [nM]
1 | AGCCAAGCAGGAUAUACCCGGGAUAACAUGAGGAUCACCCAUGUGACCGAUUGAUGUCCUGUAGAAGGGCUUGGGA [Mod of ViennaUCT 21 - Jieux - Exclusion 5] (Eterna round: R97, puzzle: Exclusion 5) | 78.1 | 28.3 | – | – | – | –
2 | AGCCCUUGUGUCAGGAUAUGCAUCCUUAAUGGACGGCAGAAGGGACAUGAGGAUCACCCAUGUAAAUAGAAAAU [Sodixeti] (puzzle: Brourd's mod of Exclusion 4) | – | – | 30.1 | 111 | 177 | –
3 | AGCCUACAUGAGGAUCACCCAUGUCAGGAUAUCUCGCGACAUGUCAAGUUCACGUUGCAGAGAAGGGACUCGGG [Ononxe] (Eterna round: R96, puzzle: Exclusion 1) | 108 | 54.1 | – | – | – | 41
4 | AGCCUACAUGAGGAUCACCCAUGUCAGGAUAUCUCGCGACAUGUCAAGUUCACGUUGCAGAGAAGGGACUCGGG [Ononxe] (puzzle: Exclusion 1) | – | – | – | 47.8 | – | –
5 | AGCGAUUCAGGAUAUACGGGUGGGCUGGAUCUUGGAGGAGUACAUGAGGAUCACCCAUGUAGAAGGGAAUUUUC [Eternabot (L2) Solution 35] (Eterna round: R97, puzzle: Exclusion 2) | 95.5 | 40.2 | – | – | – | –
6 | AGCGCCAUCGUGAGAUGGCGUAUUACAUGAGGAUCACCCAUGUAGGAUAUCGAUUGCUUUGCAGUCGAGAAGGGCAUGUUCUAG [JL ENG3 3.80 Mod G] (Eterna round: R96, puzzle: Exclusion NG 3) | 82.4 | 73.6 | – | – | – | 35.8
7 | AGCUAGUCAGGAUAUACAAACAUGUCAAAAGACGUGAAGGGACAUGAGGAUCACCCAUGUAGAAGGGACUAGCA [Web Mod 74% 2] (Eterna round: R96, puzzle: Exclusion 2) | 304 | 49.2 | – | – | – | 43.1
8 | AGCUAGUCAGGAUAUUCUAAUAAUUACAUGAGGAUCACCCAUGUGCAUAGACAAGGGUGUGAAGAAGGGACUAGCG [Omei Ex5 A7] (Eterna round: R97, puzzle: Exclusion 5) | 797 | 2530 | – | – | – | –
9 | AGCUAGUCAGGAUAUUCUAAUGAUUACAUGAGGAUCACCCAUGUGAAUGGACAAGGGUGUGAAGAAGGGACUAGCG [Omei Ex5 A10] (Eterna round: R97, puzzle: Exclusion 5) | 426 | 4030 | – | – | – | –
10 | AGCUAGUCAGUAGGAUAUGUAGGAUAUGUGGUUGAGGUUCACCCAACCACAUCAACGACAGAAGGACAGAAGGACUGGUUAGCA [pwkr exNG2 2xFMN 1xF5.5] (Eterna round: R96, puzzle: Exclusion NG 2) | 2320 | 2810 | – | – | – | 1210
11 | AGCUAGUGCCGAGGAUAUACAUGAGGAUCACCCAUGUAAGCCAGUCGGUUUCUGACUGGCAAUAUGUAGAAGGCGGCGUUGGCA [JL ENG2 1.49] (Eterna round: R96, puzzle: Exclusion NG 2) | 48.2 | 16.6 | – | – | – | 11.3
12 | AGCUAGUGCCGAGGAUAUGAUACAUGAGGAUCACCCAUGUGUAGGGUGUAUAUAUAUCAAUAAUAUUAGAAGGCGGCGUUGGCA [JL ENG2 1.47] (Eterna round: R96, puzzle: Exclusion NG 2) | 785 | 1480 | – | – | – | 480
13 | AGCUGGUCAGGAUAUUUGGAGGGACUCCAAUGGUCCACGACGGAGAAGGGACAUGAGGAUCACCCAUGUGGUCG [Eternabot (L2) Solution 13] (Eterna round: R97, puzzle: Exclusion 4) | 69.3 | 115 | – | – | – | –
14 | AGCUGUGGCCGAGGAUAUACAUGAGGAUCACCCAUGUUACAUAAUUCGACAUGAGAAUACGAACCGUAGAAGGCGGUCUCAGCA [Eli eng2 - 002] (Eterna round: R96, puzzle: Exclusion NG 2) | 127 | 66.1 | – | – | – | 37.8
15 | AGCUGUGGCCGAGGAUAUAUACAUGAGGAUCACCCAUGUAGGUGCGGAUACUCGCACCAAUAAGUGUAGAAGGCGGUCUCAGCA [Eli eng2 - 058] (Eterna round: R96, puzzle: Exclusion NG 2) | 10.7 | 13.3 | – | – | – | 13.1
16 | AGCUGUGGCCGAGGAUAUCCACAUGAGGAUCACCCAUGUUGAUACGCCGUUAAAGGCGAUAUAAGGGAGAAGGCGGUCUCAGCA [Eli eng2 - 051] (Eterna round: R96, puzzle: Exclusion NG 2) | 12.5 | 9.26 | – | – | – | 7.18
17 | AGCUGUGGCCGAGGAUAUCUAAUAAUCCCAACCGAAAUAUAAUCGGACAUGAGGAUCACCCAUGUAGAGAAGGCGGUCUCAGCA [Eli eng2 - 066] (Eterna round: R96, puzzle: Exclusion NG 2) | – | – | – | – | – | 96.6
18 | AGCUUUUUGUUCGUCUUACACAUGAGGAUCACCCAUGUGUUGGACCGCAUCGAUAGAUGUAGACCGAGAAGCAUGGG [Omdei Mir OFFv1 C8] (Eterna round: R97, puzzle: Sensor, turn-off variant 1) | 24.5 | 23.8 | – | – | – | –
19 | AGGAAACAUGAGGAUCACCCAUGUGAGGAUAUUUGAAAGAAAAGAAAAGAAAGAAGAAGAAGAAGGCACAAGAA [Merneith] (Eterna round: R96, puzzle: Exclusion 1) | – | – | – | – | – | 23.8
20 | AGGACGAUAGGAUAUACAUGAGGAUCACCCAUGUGCAUAAGAAUAUGCCAAUCCACGCGUAGAAGGAUCAUAAU [Eternabot (Original) Solution 11] (Eterna round: R97, puzzle: Exclusion 3) | 65.4 | 28.1 | – | – | – | –
21 | AGGAGACAUGAGGAUCACCCAUGUAAGGAUAUGUAGGAGCAGCCGGCUGGUUCGCUCCGCAGAAGGUGCGCGGU [Eternabot (L2) Solution 11] (Eterna round: R97, puzzle: Exclusion 1) | 49.3 | 41.3 | – | – | – | –
22 | AGGCCACAUGAGGAUCACCCAUGUUAGGAUAUCGAGAGUACAACGAGCCGUCACUUCCCGAGAAGGGACAAGGG [Eternabot (Original) Solution 22] (Eterna round: R97, puzzle: Exclusion 1) | 65.3 | 54.5 | – | – | – | –
23 | AGGGAUAAAGGAUAUACAUGAGGAUCACCCAUGUUGAGGAAAGUUAGAUGAGGAGGAAGUAGAAGGUUAGGCGA [JR_Exclu3_Sub086] (puzzle: Exclusion 3) | – | – | 31.1 | 31.7 | 40.4 | –
24 | AGGUAGUCAGGAUAUUAGGAGUAGCGGGAUAACGCUACGAGUGAGAAGGGACAUGAGGAUCACCCAUGUUUUGU [JR_Ex4_Sub068] (Eterna round: R97, puzzle: Exclusion 4) | 24.3 | 23.1 | – | – | – | –
25 | AGGUCACAUGAGGAUCACCCAUGUCAGGAUAUCGUCACUGGAGCUGCGGCUCCAGUGACGAGAAGGGACAAUUA [E1/6-A3] (Eterna round: R97, puzzle: Exclusion 1) | 372 | 77.2 | – | – | – | –
26 | AGGUGCUUCUGGAGACAUGAGGAUCACCCAUGUUGAGUUAGCGAGGAUAUCGGUAAUGCAUGUGAUGAGAAGGCGCAAACCGAU [Ex NG3 #48] (Eterna round: R96, puzzle: Exclusion NG 3) | 36.8 | 46.1 | – | – | – | 40.3
27 | AGGUGUAGAGGAUAUACAGUGUAUUACAUGAGGAUCACCCAUGUCCCUCAAUGAGUGUCAGUAGAAGGCUACACCA [Omei Ex5 C3] (Eterna round: R97, puzzle: Exclusion 5) | 329 | 403 | – | – | – | –
28 | AGGUGUAGAGGAUAUACUGCAAAGCACAUGAGGAUCACCCAUGUCCCUCUAUGAAAUUAAGUAGAAGGCUACACCA [Omei Ex5 C5] (Eterna round: R97, puzzle: Exclusion 5) | 88.6 | 77.1 | – | – | – | –
29 | AGUAACUAUCACGAAAGUGAUAGUUACAAUAGCAGUGGAACAUGAGGAUCACCCAUGUCCUCAUUUGCUCGUCUUAU [Sensor 3 - 22] (puzzle: Sensor v3, turn-off variant 2) | – | – | 36.2 | 21.6 | 38.4 | –
30 | AGUAACUAUCACGAAAGUGAUAGUUACACAAGUGAAUAAACAUGAGGAUCACCCAUGUCCUCAUUUGCUCGUCUUAU [Sensor 3 - 16] (puzzle: Sensor v3, turn-off variant 2) | – | – | 418 | 365 | 499 | –
